In article PMC3419727, “Identifying the Hotspots on the Top Faces of WD40-Repeat Proteins from Their Primary Sequences by β-Bulges and DHSW Tetrads” (PLoS ONE, 2012):
Several values for one entry are separate records, joined by “and”; a condition that tells them apart may be missing. Equal entries are not always repeated.

What was measured:
[1] = molecular target: T1, S. japonicus Tup11 WD40 domain (301–630) Leu559Ala (S. japonicus, UniProt B6JV84 301-630, Leu559Ala); assay: ITC; Fep1 (~1.4 mM) injected, 2 µl each time, into Tup11 WT or mutant (~0.2 mM); 25°C; 1×PBS pH 7.4, 150 mM NaCl; iTC200 (MicroCal); Fep1 into buffer subtracted as background; conditions: both partners purified
T1 construct: Tup11, S. japonicus, WD40 domain, amino acids 301-630
T1 sequence (looked up): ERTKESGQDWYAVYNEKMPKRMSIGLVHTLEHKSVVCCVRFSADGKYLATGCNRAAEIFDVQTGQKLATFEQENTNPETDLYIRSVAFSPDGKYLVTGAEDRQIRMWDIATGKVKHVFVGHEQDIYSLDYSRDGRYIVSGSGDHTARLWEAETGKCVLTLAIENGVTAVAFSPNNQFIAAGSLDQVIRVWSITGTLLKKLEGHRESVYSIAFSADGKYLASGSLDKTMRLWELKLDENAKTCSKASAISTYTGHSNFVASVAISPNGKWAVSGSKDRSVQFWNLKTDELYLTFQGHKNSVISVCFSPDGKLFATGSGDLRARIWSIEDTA

[2] = molecular target: T2, S. japonicus Tup11 WD40 domain (amino acids 301–630), wild type (S. japonicus, UniProt B6JV84 301-630); assay: ITC
T2 chain: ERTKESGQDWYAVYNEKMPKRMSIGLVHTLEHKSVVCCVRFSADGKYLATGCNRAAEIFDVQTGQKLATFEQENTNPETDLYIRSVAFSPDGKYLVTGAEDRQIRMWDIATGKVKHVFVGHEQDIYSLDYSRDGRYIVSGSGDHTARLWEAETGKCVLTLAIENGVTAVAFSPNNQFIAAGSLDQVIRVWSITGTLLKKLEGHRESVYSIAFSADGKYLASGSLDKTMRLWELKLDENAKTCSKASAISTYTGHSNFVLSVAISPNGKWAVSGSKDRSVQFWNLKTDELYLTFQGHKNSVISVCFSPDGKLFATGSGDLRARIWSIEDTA

[3] = molecular target: The remained five residues (Ala substitutions at R1 positions of Tup11); assay: ITC; Fep1 (~1.4 mM) injected, 2 µl each time, into Tup11 WT or mutant (~0.2 mM); 25°C; 1×PBS pH 7.4, 150 mM NaCl; iTC200 (MicroCal); Fep1 into buffer subtracted as background
[4] = molecular target: Leu524Ala at D-1 and Phe557Ala at R1-2; assay: as above

B1: C-terminal region of S. pombe Fep1 (amino acids 319–564) (domain or fragment, UniProt Q10134 319-564, looked up)
chain: AAGEPDNNGKVYYSYGPTQEQSILPLPENKHEGLPPYQNEYVPNGIRANQVVYPGQLVAVGNDSSKQLSESTTSNTDNNGVATANQSNPLGMKFHLPPILPVGESVCLPPRTSAKPRIAEGIASLLNPEEPPSNSDKQPSMSNGPKSEVSPSQSQQAPLIQSSTSPVSLQFPPEVQGSNVDKRNYALNVLSQLRSQHDLMIQELHNLNQHIQQIDEWLRSSDNENMASEHIKSSTPAVVASGALQT
notes: Fep1, GATA-factor, S. pombe, C-terminal region, amino acids 319-564
In the case of B1, the “reduction of binding free energy against wild type” value [1] is reported as roughly 1 kcal/mol, the Ka [2] is reported as 70000 M⁻¹ and the reduction of binding free energy against wild type [3] is reported as 1 kcal/mol and 1.5 kcal/mol. The reduction of binding free energy against wild type [4] was 0.5 kcal/mol and 0.8 kcal/mol.
